The values that follow come from PMC3303803, “Identification of the First Functional Toxin-Antitoxin System in Streptomyces” (PLoS ONE, 2012).

Data set [1] concerns T1, YefM-His6sl (antitoxin);YoeB-His6sl (toxin) (Streptomyces lividans 1326?;Streptomyces lividans 1326?), ORF:ca022027+Q9Z4V8.
T1 sequence 1: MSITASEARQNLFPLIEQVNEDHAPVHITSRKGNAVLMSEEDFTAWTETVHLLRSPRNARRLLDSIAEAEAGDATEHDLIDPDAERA
T1 sequence 2: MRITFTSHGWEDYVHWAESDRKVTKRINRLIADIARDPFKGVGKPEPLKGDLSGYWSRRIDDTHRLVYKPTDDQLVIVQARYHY
Briefly: EMSA. For orientation: Mobility shift assays separate free from complexed probe on a gel.

For data set [2], the system named is T2, YefMsl-YoeBsl antitoxin (untagged YefM of natural complex);YoeB-His6sl (toxin) (Streptomyces lividans 1326?;Streptomyces lividans 1326?), ORF:ca022027+Q9Z4V8.
T2 sequence 1: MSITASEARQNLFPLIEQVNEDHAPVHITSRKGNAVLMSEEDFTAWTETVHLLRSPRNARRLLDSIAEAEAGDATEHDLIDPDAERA
T2 sequence 2: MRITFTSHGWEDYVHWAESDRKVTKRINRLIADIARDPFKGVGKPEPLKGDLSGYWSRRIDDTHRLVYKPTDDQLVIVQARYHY
Briefly: EMSA.

Data set [3] addresses T3, S. lividans antitoxin YefM-His6sl (Streptomyces lividans, UniProt Q9Z4V7 1-87).
T3 construct: YefMsl, putative antitoxin of the yefM/yoeBsl operon of Streptomyces lividans 1326; identical to S. coelicolor SCO2235 (YefMsc); 9.7 kDa; Cloned with primers LS-005/LS-022 between NdeI and XhoI of pET22b; also called YefMsl; source: E. coli BL21 (DE3), pET22b-Anti, purified (NTA-Ni, dialysis); not shown: His6, C-terminal, kept
T3 sequence (looked up): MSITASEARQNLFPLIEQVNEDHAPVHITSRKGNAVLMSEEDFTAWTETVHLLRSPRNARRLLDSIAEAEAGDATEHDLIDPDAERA
Briefly: native gel or EMSA. Conditions: both partners purified.

As to “TTTTTTCATATGACCAGTGCCTCCCTTCCTCGGCTGGTACAAGATATCGTACGAGTCTGGGACGGTCCACCGGAAAGCGGGAGCGGTACGTCCCGGCGCCCGCACGCCGTTCCCCGGCTACGCTCAGCCCGTACGACCTTGATCCGACCGGGCCCACGTGCCCCGCAGCCCGACAGGAGGCCGAGAATTCAAAAAA (double strand) [TA promoter (yefM/yoeBsl intergenic region)]”, the binding result in data set [1] and in data set [2] was “binds” throughout.

B1: S. lividans toxin YoeB-His6sl (natural protein, Streptomyces lividans, UniProt Q9Z4V8 1-84, looked up)
chain: MRITFTSHGWEDYVHWAESDRKVTKRINRLIADIARDPFKGVGKPEPLKGDLSGYWSRRIDDTHRLVYKPTDDQLVIVQARYHY
notes: also called YoeBsl; toxin-His6; not shown: His6, C-terminal, kept
As for B1, the binding result in data set [3] is recorded as “binds”.
